Among the data in article PMC9348634, “Insight into the mechanism of DNA synthesis by human terminal deoxynucleotidyltransferase” are Kd values, retold here.

What all share (settings): label: 5'-FAM; single strand
For series [1], the target named is T1, terminal deoxynucleotidyltransferase (TdT) (human, UniProt P04053 1-509). Briefly: MST; Co2+; Kd treated by authors as estimate; MST with 5.0 mM Mg2+ (Mn2+ or Co2+ in other runs, concentration not given); buffer, salt, pH and temperature not in the material.
T1 sequence (P04053 whole entry): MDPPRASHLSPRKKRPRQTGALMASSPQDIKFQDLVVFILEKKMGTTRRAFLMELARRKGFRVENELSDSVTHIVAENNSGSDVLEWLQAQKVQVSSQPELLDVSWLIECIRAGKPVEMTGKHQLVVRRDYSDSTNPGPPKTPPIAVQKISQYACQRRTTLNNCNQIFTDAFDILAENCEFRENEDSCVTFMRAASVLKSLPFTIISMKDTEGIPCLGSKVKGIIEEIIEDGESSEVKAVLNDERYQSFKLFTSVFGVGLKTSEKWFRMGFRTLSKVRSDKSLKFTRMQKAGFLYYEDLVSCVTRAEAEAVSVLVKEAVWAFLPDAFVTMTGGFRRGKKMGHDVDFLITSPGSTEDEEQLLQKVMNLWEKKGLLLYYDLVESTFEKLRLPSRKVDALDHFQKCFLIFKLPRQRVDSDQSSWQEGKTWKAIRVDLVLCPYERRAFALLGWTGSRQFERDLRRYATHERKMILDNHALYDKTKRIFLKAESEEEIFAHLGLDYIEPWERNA
For series [2], the target named is T1, terminal deoxynucleotidyltransferase …. Nature of the series: MST; 5.0 mM Mg2+; MST with 5.0 mM Mg2+ (Mn2+ or Co2+ in other runs, concentration not given); buffer, salt, pH and temperature not in the material.
Series [3] has the same target. Nature of the series: MST; Mn2+; Kd treated by authors as estimate; MST with 5.0 mM Mg2+ (Mn2+ or Co2+ in other runs, concentration not given); buffer, salt, pH and temperature not in the material.

B1: DNA primer FAM-GGAAGA (ssDNA)
DNA: GGAAGA
By Kd is commonly meant the equilibrium constant for the complex coming apart. On to B1, for which the Kd in series [1] is 700 ± 100 nM; in series [2] it was 4.6 ± 0.1 µM; in series [3], 800 ± 200 nM.
